Results taken from the supplement of paper PMC9112550, “Optimization of the antimicrobial peptide Bac7 by deep mutational scanning” (BMC Biology, 2022).

System: Escherichia coli TOP10
Assay: shrunken log2 fold change of peptide-encoding DNA abundance (4.5 h post-induction vs induction); higher = less antimicrobial activity (less host growth inhibition)
Settings: time post-induction: 4.5 h; library: site-saturation at positions 5, 18, 19, 20
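Further: peptides expressed intracellularly from a pBAD plasmid library in pooled LB shake-flask culture, induced with 0.3% L-arabinose, DNA abundance read by NGS, three biological replicates, DESeq2 with apeglm shrinkage.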

Sequence: RRIRDRPPRLPRPRPRPGTQPRP
- shrunken log2 fold change: 0.00934

Sequence: RRIRDRPPRLPRPRPRPQVLPRP
- shrunken log2 fold change: -0.178

Sequence: RRIRGRPPRLPRPRPRPQNGPRP
- shrunken log2 fold change: 3.22

Sequence: RRIRKRPPRLPRPRPRPMVYPRP
- shrunken log2 fold change: -0.0451

Sequence: RRIRDRPPRLPRPRPRPMHMPRP
- shrunken log2 fold change: -0.0583

Sequence: RRIRGRPPRLPRPRPRPYMIPRP
- shrunken log2 fold change: 0.0548

Sequence: RRIRVRPPRLPRPRPRPHWTPRP
- shrunken log2 fold change: -0.045

Sequence: RRIRWRPPRLPRPRPRPSPCPRP
- shrunken log2 fold change: -0.214

Sequence: RRIRGRPPRLPRPRPRPTETPRP
- shrunken log2 fold change: 0.559

Sequence: RRIRNRPPRLPRPRPRPYCLPRP
- shrunken log2 fold change: -0.228

Sequence: RRIRDRPPRLPRPRPRPQRQPRP
- shrunken log2 fold change: 0.0345

Sequence: RRIRLRPPRLPRPRPRPRPEPRP
- shrunken log2 fold change: 0.799

Sequence: RRIRDRPPRLPRPRPRPCMPPRP
- shrunken log2 fold change: 0.0198

Sequence: RRIRERPPRLPRPRPRPNNTPRP
- shrunken log2 fold change: -0.769

Sequence: RRIRVRPPRLPRPRPRPMTTPRP
- shrunken log2 fold change: 0.0377

Sequence: RRIRKRPPRLPRPRPRPKNAPRP
- shrunken log2 fold change: 0.216

Sequence: RRIRHRPPRLPRPRPRPPSTPRP
- shrunken log2 fold change: -0.0909

Sequence: RRIRNRPPRLPRPRPRPNFWPRP
- shrunken log2 fold change: 0.0138

Sequence: RRIRTRPPRLPRPRPRPITQPRP
- shrunken log2 fold change: -0.168

Sequence: RRIRGRPPRLPRPRPRPKWVPRP
- shrunken log2 fold change: 0.233

Sequence: RRIRLRPPRLPRPRPRPCTEPRP
- shrunken log2 fold change: -0.0105

Sequence: RRIRNRPPRLPRPRPRPFAHPRP
- shrunken log2 fold change: -0.00369

Sequence: RRIRSRPPRLPRPRPRPQLKPRP
- shrunken log2 fold change: 0.0348

Sequence: RRIRYRPPRLPRPRPRPCERPRP
- shrunken log2 fold change: 0.0112

Sequence: RRIRARPPRLPRPRPRPSIIPRP
- shrunken log2 fold change: -0.254

Sequence: RRIRQRPPRLPRPRPRPFDLPRP
- shrunken log2 fold change: -0.318

Sequence: RRIRNRPPRLPRPRPRPGKTPRP
- shrunken log2 fold change: 0.0837

Sequence: RRIRFRPPRLPRPRPRPESSPRP
- shrunken log2 fold change: 0.113

Sequence: RRIRKRPPRLPRPRPRPPMIPRP
- shrunken log2 fold change: -0.0795

Sequence: RRIRERPPRLPRPRPRPLNMPRP
- shrunken log2 fold change: -0.528

Sequence: RRIRGRPPRLPRPRPRPIITPRP
- shrunken log2 fold change: -0.0865

Sequence: RRIRRRPPRLPRPRPRPHQPPRP
- shrunken log2 fold change: 0.557

Sequence: RRIRTRPPRLPRPRPRPWFKPRP
- shrunken log2 fold change: -0.214

Sequence: RRIRIRPPRLPRPRPRPNIVPRP
- shrunken log2 fold change: -0.665

Sequence: RRIRARPPRLPRPRPRPEQDPRP
- shrunken log2 fold change: 0.805

Sequence: RRIRKRPPRLPRPRPRPKWYPRP
- shrunken log2 fold change: -0.235

Sequence: RRIRQRPPRLPRPRPRPDESPRP
- shrunken log2 fold change: 0.0454

Sequence: RRIRNRPPRLPRPRPRPALYPRP
- shrunken log2 fold change: -0.125

Sequence: RRIRERPPRLPRPRPRPYNGPRP
- shrunken log2 fold change: -0.509

Sequence: RRIRFRPPRLPRPRPRPTWLPRP
- shrunken log2 fold change: 0.299

Sequence: RRIRERPPRLPRPRPRPDHSPRP
- shrunken log2 fold change: -0.184

Sequence: RRIRWRPPRLPRPRPRPRIRPRP
- shrunken log2 fold change: 0.0716

Sequence: RRIRFRPPRLPRPRPRPAQSPRP
- shrunken log2 fold change: 0.0902

Sequence: RRIRNRPPRLPRPRPRPVEQPRP
- shrunken log2 fold change: 0.0207

Sequence: RRIRRRPPRLPRPRPRPAEKPRP
- shrunken log2 fold change: 0.225

Sequence: RRIRRRPPRLPRPRPRPCGLPRP
- shrunken log2 fold change: 0.15

Sequence: RRIRGRPPRLPRPRPRPEMLPRP
- shrunken log2 fold change: 1.71

Sequence: RRIRTRPPRLPRPRPRPMTHPRP
- shrunken log2 fold change: -0.633

Sequence: RRIRYRPPRLPRPRPRPDWAPRP
- shrunken log2 fold change: 0.0528

Sequence: RRIRHRPPRLPRPRPRPAKGPRP
- shrunken log2 fold change: 0.0449

Sequence: RRIRGRPPRLPRPRPRPATVPRP
- shrunken log2 fold change: 0.244

Sequence: RRIRGRPPRLPRPRPRPNFYPRP
- shrunken log2 fold change: 0.22

Sequence: RRIRGRPPRLPRPRPRPCAHPRP
- shrunken log2 fold change: 0.251

Sequence: RRIRQRPPRLPRPRPRPERCPRP
- shrunken log2 fold change: 0.00749

Sequence: RRIRRRPPRLPRPRPRPDGDPRP
- shrunken log2 fold change: 0.485

Sequence: RRIRPRPPRLPRPRPRPSLEPRP
- shrunken log2 fold change: 0.0508

Sequence: RRIRFRPPRLPRPRPRPSYDPRP
- shrunken log2 fold change: -0.0248

Sequence: RRIRWRPPRLPRPRPRPIMAPRP
- shrunken log2 fold change: 0.14

Sequence: RRIRHRPPRLPRPRPRPRNGPRP
- shrunken log2 fold change: -0.0288

Sequence: RRIRPRPPRLPRPRPRPESIPRP
- shrunken log2 fold change: -0.0804
